{
  "source": "patent US6872808",
  "about": "(CORVAS INTERNATIONAL, dated 2005)",
  "key": {"human alpha-thrombin": {"target": "human alpha-thrombin (human, UniProt P00734 328-622)", "test": "cell-based or functional assay"}, "human Factor XIa": {"target": "human Factor XIa (human, UniProt P03951 19-625)", "test": "cell-based or functional assay"}, "human Factor XIIa": {"target": "T1, human Factor XIIa (human, UniProt P00748 20-615)", "T1 sequence": "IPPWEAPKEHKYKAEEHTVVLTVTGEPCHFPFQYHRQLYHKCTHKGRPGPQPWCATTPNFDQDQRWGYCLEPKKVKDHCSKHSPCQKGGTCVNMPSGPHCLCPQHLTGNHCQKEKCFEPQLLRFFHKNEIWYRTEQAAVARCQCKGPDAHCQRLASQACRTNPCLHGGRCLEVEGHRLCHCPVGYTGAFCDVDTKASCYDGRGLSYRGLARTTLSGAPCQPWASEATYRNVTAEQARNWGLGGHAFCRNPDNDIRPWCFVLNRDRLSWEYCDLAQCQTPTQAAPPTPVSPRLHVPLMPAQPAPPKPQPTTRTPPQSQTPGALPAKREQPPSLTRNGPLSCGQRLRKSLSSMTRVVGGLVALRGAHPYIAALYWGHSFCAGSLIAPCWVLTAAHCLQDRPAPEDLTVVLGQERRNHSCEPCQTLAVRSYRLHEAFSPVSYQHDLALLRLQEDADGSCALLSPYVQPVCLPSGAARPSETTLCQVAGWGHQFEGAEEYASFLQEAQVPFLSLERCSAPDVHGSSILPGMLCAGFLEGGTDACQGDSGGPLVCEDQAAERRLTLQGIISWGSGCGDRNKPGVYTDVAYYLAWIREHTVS", "test": "cell-based or functional assay"}, "human kallikrein": {"target": "human kallikrein (human, UniProt P03952 20-638)", "sequence (P03952 20-638 limits assumed)": "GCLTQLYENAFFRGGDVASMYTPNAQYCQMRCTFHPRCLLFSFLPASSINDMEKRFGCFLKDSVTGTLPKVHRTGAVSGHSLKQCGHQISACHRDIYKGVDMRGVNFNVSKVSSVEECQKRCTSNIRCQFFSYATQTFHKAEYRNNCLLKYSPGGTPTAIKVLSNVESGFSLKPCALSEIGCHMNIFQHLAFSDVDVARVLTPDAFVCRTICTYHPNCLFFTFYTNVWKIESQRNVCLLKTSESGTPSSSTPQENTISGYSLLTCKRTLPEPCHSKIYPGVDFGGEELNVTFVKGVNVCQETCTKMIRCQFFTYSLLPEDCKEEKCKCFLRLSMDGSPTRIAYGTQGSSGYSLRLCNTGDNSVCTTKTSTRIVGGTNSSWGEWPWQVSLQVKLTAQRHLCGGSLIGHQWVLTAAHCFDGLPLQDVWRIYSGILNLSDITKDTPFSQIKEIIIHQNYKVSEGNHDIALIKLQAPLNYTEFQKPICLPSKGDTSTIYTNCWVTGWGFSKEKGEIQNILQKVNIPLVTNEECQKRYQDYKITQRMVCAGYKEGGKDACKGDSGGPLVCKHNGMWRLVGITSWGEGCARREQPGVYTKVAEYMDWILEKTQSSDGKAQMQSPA", "test": "cell-based or functional assay"}, "[1]": {"target": "human activated protein C (human, UniProt P04070 43-461)", "test": "cell-based or functional assay"}, "human plasmin": {"target": "human plasmin (human, UniProt P00747 97-810)", "sequence (P00747 97-810 limits assumed)": "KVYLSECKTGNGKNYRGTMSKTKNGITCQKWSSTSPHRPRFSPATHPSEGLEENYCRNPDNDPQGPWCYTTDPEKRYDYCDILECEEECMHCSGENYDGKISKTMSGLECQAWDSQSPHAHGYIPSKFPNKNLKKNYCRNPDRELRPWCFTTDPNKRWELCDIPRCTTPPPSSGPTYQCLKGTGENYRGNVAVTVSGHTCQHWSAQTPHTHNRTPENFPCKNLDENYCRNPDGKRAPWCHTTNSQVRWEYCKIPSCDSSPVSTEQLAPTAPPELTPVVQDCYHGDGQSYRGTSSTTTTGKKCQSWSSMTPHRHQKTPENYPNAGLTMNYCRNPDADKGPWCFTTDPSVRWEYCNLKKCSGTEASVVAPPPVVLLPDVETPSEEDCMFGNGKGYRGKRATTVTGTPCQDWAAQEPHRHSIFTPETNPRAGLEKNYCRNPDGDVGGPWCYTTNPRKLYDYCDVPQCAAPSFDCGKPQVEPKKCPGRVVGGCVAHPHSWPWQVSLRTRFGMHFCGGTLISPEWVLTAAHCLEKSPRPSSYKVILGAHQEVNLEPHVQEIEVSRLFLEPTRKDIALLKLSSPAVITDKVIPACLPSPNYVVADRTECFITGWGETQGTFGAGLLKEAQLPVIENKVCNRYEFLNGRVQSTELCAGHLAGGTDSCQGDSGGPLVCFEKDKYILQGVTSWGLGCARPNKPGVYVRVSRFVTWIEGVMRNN", "test": "cell-based or functional assay"}, "[2]": {"target": "recombinant tissue plasminogen activator (human, UniProt P00750 36-562)", "sequence (P00750 36-562 limits assumed)": "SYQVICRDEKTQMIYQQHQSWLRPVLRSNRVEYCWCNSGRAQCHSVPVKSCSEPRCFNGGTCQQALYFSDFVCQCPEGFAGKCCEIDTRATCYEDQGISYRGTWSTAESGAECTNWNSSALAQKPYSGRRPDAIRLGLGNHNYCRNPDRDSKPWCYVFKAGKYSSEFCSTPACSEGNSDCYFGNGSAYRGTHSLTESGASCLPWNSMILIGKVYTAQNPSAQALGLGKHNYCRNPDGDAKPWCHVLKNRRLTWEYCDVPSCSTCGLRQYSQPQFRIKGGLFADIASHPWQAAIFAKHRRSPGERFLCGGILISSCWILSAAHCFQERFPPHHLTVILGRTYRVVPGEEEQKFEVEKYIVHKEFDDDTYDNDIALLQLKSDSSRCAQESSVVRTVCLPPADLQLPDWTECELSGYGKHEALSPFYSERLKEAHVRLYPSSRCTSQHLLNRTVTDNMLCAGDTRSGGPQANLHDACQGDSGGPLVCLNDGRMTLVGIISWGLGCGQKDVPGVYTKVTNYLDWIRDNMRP", "test": "cell-based or functional assay"}, "human urokinase": {"target": "human urokinase (human, UniProt P00749 156-431)", "test": "cell-based or functional assay"}, "[3]": {"target": "bovine pancreatic chymotrypsin (bovine, UniProt P00766 1-245)", "test": "cell-based or functional assay"}, "human pancreatic trypsin": {"target": "human pancreatic trypsin (human, UniProt P07477 24-247)", "test": "cell-based or functional assay"}, "human factor Xa": {"target": "human factor Xa (human, UniProt P00742 41-179; P00742 235-488)", "sequence (P00742 41-179 limits assumed, chain 1 of 2)": "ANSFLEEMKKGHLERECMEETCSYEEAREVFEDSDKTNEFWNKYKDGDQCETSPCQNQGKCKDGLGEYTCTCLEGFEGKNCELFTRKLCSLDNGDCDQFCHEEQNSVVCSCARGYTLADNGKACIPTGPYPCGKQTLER", "sequence (P00742 235-488 limits assumed, chain 2 of 2)": "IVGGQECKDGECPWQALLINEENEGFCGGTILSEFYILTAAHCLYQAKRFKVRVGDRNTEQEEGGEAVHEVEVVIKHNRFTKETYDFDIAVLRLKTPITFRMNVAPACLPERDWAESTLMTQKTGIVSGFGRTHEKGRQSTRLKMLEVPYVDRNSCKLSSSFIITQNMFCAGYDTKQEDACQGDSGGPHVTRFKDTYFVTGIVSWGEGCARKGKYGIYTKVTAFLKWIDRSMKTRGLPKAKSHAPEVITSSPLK", "test": "cell-based or functional assay"}, "rFVIIa/rTF/PLV complex [4]": {"target": "T2, rFVIIa/rTF/PLV complex (human, UniProt P08709 61-466; P13726 33-295)", "T2 construct": "Complex formed in HBSA with CaCl2 on phosphatidyl choline/phosphatidyl serine vesicles; also called fVIIa/TF; FVIIa/TF", "T2 sequence (P08709 61-466 limits assumed, chain 1 of 2)": "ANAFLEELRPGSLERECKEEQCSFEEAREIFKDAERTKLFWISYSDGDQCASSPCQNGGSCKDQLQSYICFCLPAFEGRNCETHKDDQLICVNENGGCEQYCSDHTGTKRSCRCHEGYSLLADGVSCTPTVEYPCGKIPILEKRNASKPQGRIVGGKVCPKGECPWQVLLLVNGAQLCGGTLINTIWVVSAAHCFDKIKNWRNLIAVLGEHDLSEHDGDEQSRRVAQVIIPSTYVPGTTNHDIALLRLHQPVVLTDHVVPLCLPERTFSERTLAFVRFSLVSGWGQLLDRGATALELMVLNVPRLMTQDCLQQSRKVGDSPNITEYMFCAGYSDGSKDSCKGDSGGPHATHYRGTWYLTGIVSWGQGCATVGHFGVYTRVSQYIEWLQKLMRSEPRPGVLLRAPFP", "T2 sequence (P13726 33-295 limits assumed, chain 2 of 2)": "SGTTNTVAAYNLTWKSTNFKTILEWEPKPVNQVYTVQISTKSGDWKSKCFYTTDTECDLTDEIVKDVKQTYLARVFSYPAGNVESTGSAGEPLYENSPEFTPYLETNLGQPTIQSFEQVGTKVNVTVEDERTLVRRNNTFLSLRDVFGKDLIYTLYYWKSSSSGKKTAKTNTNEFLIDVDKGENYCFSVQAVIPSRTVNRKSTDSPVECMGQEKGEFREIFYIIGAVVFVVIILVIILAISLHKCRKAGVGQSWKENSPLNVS", "test": "rFVIIa/rTF/PLV amidolytic assay (S-2288), no FXa addition; apparent Ki*"}, "rFVIIa/rTF/PLV complex [5]": {"target": "T2, rFVIIa/rTF/PLV complex", "test": "rFVIIa/rTF/PLV amidolytic assay (S-2288) plus 2.5 nM EGR-FXa; apparent Ki*"}},
  "data": [
    {"binder": "recombinant AceNAP4 (other, Two NAP domains) KPNNVMTNACGLNEYFAECGNMKECEHRCNEEENEERDEERITACLIRVCFRPGACVCKDGFYRNRTGSCVEEDDCEYENMEFITFAPEVPICGSNERYSDCGNDKQCERKCNEDDYEKGDEACRSHVCERPGACVCEDGFYRNKKGSCVESDDCEYDNMDFITFAPETSR", "values": [
      {"measurement": "% Control Velocity (amidolytic activity; 75 nM NAP, 750 pM enzyme)", "setting": "human alpha-thrombin", "value": 93, "unit": "%"},
      {"measurement": "% Control Velocity (amidolytic activity; 75 nM NAP, 750 pM enzyme)", "setting": "human Factor XIa", "value": 96, "unit": "%"},
      {"measurement": "% Control Velocity (amidolytic activity; 75 nM NAP, 750 pM enzyme)", "setting": "human Factor XIIa", "value": 102, "unit": "%"},
      {"measurement": "% Control Velocity (amidolytic activity; 75 nM NAP, 750 pM enzyme)", "setting": "human kallikrein", "value": 32, "unit": "%"},
      {"measurement": "% Control Velocity (amidolytic activity; 75 nM NAP, 750 pM enzyme)", "setting": "[1]", "value": 103, "unit": "%"},
      {"measurement": "% Control Velocity (amidolytic activity; 75 nM NAP, 750 pM enzyme)", "setting": "human plasmin", "value": 100, "unit": "%"},
      {"measurement": "% Control Velocity (amidolytic activity; 75 nM NAP, 750 pM enzyme)", "setting": "[2]", "value": 108, "unit": "%"},
      {"measurement": "% Control Velocity (amidolytic activity; 75 nM NAP, 750 pM enzyme)", "setting": "human urokinase", "value": 103, "unit": "%"},
      {"measurement": "% Control Velocity (amidolytic activity; 75 nM NAP, 750 pM enzyme)", "setting": "[3]", "value": 96, "unit": "%"},
      {"measurement": "% Control Velocity (amidolytic activity; 75 nM NAP, 750 pM enzyme)", "setting": "human pancreatic trypsin", "value": 98, "unit": "%"},
      {"measurement": "% Control Velocity (amidolytic activity; 75 nM NAP, 750 pM enzyme)", "setting": "human factor Xa", "value": 76, "unit": "%"},
      {"measurement": "Ki", "setting": "rFVIIa/rTF/PLV complex [4]", "value": 59.2, "unit": "nM"},
      {"measurement": "Ki", "setting": "rFVIIa/rTF/PLV complex [5]", "value": 0.378, "unit": "nM"}
    ]}
  ]
}
